Laboratory results from US20200297764A1 (Memorial Sloan Kettering, published 2020).

Legend:
[1] = biological target: CD33 on human CD33(+) cells (human, UniProt P20138 18-364); test: cell-based or functional assay
CD3 on activated T cells = biological target: T1, CD3 on activated T cells (human, UniProt P07766 23-207); test: flow cytometry on activated T cells, 4 C, secondary antibody, MFI
T1 construct: whole, on cells; CD3 complex on cells; the rest of the complex is not described; also called CD3 receptor
T1 sequence (P07766 23-207): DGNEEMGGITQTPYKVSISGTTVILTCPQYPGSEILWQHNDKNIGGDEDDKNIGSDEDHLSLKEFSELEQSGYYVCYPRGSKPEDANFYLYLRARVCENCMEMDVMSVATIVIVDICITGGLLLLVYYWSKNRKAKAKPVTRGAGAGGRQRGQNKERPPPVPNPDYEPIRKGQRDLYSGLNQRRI
Description: FIG. 13 depicts binding properties of an exemplary CD33-CD3 IgG-scFv (BsAb) to CD33 and CD3. (A) MOLM13 cells were reacted for 30 min at 4 C.° using decreasing doses of hM195 (anti-CD33 IgG), the heterodimeric BsAb, and an exemplary CD33-CD3 IgG-scFv. Cells were washed and immunostained with a fluorochrome-conjugated secondary antibody and mean fluorescence intensity (MFI) assayed by flow cytometry. (B) MOLM13 cells were reacted for 30 min, 4 h or 24 h at 37 C.° or 4 C.° with 1 μg/ml of hM195 (anti-CD33 IgG), the heterodimeric IgG BsAb, and exemplary CD33-CD3 IgG-scFv. Cells were washed and immunostained with a fluorochrome-conjugated secondary antibody at 4 C.°. After washing the unbound antibody, MFI was analyzed by flow cytometry. (C) Activated T cells were reacted for 30 min at 4 C.° with decreasing doses of hOKT3 (anti-CD3 IgG), the heterodimeric BsAb, and exemplary CD33-CD3 IgG-scFv. Cells were washed and immunostained with a fluorochrome-conjugated secondary antibody and MFI analyzed measured by flow cytometry.

Chain of CD33 on human CD33(+) cells (P20138 18-364): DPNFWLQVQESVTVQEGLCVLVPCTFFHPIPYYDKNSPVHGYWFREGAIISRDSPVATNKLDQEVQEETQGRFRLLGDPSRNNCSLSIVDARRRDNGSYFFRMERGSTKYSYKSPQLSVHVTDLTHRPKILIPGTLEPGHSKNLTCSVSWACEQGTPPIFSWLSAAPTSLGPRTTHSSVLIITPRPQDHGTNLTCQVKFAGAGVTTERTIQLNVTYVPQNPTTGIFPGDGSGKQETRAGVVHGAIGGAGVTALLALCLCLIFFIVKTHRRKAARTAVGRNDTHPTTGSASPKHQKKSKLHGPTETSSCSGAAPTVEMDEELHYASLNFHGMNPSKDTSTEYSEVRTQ

B1: CD33-BsAb (BiClone 133), exemplary CD33-CD3 IgG-scFv bispecific antibody agent (bispecific antibody)
heavy: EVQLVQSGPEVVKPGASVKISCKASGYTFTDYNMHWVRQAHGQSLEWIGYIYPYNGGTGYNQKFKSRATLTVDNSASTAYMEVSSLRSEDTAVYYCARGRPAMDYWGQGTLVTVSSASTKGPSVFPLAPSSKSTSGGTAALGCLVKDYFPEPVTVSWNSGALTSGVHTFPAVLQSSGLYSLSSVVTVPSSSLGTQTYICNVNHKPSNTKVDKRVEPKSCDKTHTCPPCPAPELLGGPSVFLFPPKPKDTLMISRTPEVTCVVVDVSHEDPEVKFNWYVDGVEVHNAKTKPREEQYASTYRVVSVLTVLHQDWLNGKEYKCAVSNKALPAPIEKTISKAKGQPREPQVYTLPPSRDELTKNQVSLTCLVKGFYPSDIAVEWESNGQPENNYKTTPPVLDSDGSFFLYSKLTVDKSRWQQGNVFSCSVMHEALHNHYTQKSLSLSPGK
light: EIVLTQSPATLSVSLGERATISCRASESVDNYGISFMNWFQQKPGQPPRLLIYAASNQGSGVPARFSGSGPGTDFTLTISSMEPEDFAMYFCQQSKEVPWTFGGGTKLEIKRTVAAPSVFIFPPSDEQLKSGTASVVCLLNNFYPREAKVQWKVDNALQSGNSQESVTEQDSKDSTYSLSSTLTLSKADYEKHKVYACEVTHQGLSSPVTKSFNRGECTSGGGGSGGGGSGGGGSQVQLVQSGGGVVQPGRSLRLSCKASGYTFTRYTMHWVRQAPGKCLEWIGYINPSRGYTNYNQKFKDRFTISRDNSKNTAFLQMDSLRPEDTGVYFCARYYDDHYSLDYWGQGTPVTVSSGGGGSGGGGSGGGGSGGGGSGGGGSGGGGSDIQMTQSPSSLSASVGDRVTITCSASSSVSYMNWYQQTPGKAPKRWIYDTSKLASGVPSRFSGSGSGTDYTFTISSLQPEDIATYYCQQWSSNPFTFGCGTKLQITR
notes: IgG-scFv format, tetravalent (2+2): two arms to CD33 and two to CD3; also called CD33-specific BsAb; anti-CD33 BsAb
- EC50 of T cell cytotoxicity (lysis of MOLM13 cells) [1]: 2.4 pM
- EC50 of T cell cytotoxicity, 4-hour 51Cr release assay, HL60 AML cells [1]: 1.1 pM
- TDCC potency, fold against the heterodimer, 4 h chromium release assay, THP1 and MOLM13 cells [1]: 12 fold
- fold weaker binding (against heterodimer) (CD3 on activated T cells): 2.5 fold
- fold weaker binding (against huOKT3) (CD3 on activated T cells): 27 fold
